Results as given in publication PMC5986005, “Catalysis of transthiolacylation in the active centers of dihydrolipoamide acyltransacetylase components of 2‐oxo acid dehydrogenase complexes” (FEBS Open Bio, 2018).
Where a chain is given by its changes, count along the chain named. Names may count otherwise.

B1: OGDHc assembled from E1o, E2o and E3 (CoA site on E2o) (Escherichia coli K-12; H376W) (protein)
chain: SSVDILVPDLPESVADATVATWHKKPGDAVVRDEVLVEIETDKVVLEVPASADGILDAVLEDEGTTVTSRQILGRLREGNSAGKETSAKSEEKASTPAQRQQASLEEQNNDALSPAIRRLLAEHNLDASAIKGTGVGGRLTREDVEKHLAKAPAKESAPAAAAPAAQPALAARSEKRVPMTRLRKRVAERLLEAKNSTAMLTTFNEVNMKPIMDLRKQYGEAFEKRHGIRLGFMSFYVKAVVEALKRYPEVNASIDGDDVVYHNYFDVSMAVSTPRGLVTPVLRDVDTLGMADIEKKIKELAVKGRDGKLTVEDLTGGNFTITNGGVFGSLMSTPIINPPQSAILGMHAIKDRPMAVNGQVEILPMMYLALSYDWRLIDGRESVGFLVTIKELLEDPTRLLLDV
notes: components expressed separately in E. coli (pCA24N in AG1 for E1o and E2o) and reassembled at E1o:E2o:E3 mass ratio 1:1:1; with 2-oxoglutarate dehydrogenase E1 component; Dihydrolipoyl dehydrogenase
B2: OGDHc assembled from E1o, E2o and E3 (CoA site on E2o) (Escherichia coli K-12; H376G) (protein)
chain: B1 chain with W375G
notes: as for B1
B3: OGDHc assembled from E1o, E2o and E3 (CoA site on E2o) (Escherichia coli K-12; R377A) (protein)
chain: B1 chain with W375H, R376A
notes: as for B1
B4: OGDHc assembled from E1o, E2o and E3 (CoA site on E2o) (Escherichia coli K-12; D380A) (protein)
chain: B1 chain with W375H, D379A
notes: as for B1
B5: OGDHc assembled from E1o, E2o and E3 (2-oxoglutarate site on E1o) (Escherichia coli K-12) (protein)
chain: MQNSALKAWLDSSYLSGANQSWIEQLYEDFLTDPDSVDANWRSTFQQLPGTGVKPDQFHSQTREYFRRLAKDASRYSSTISDPDTNVKQVKVLQLINAYRFRGHQHANLDPLGLWQQDKVADLDPSFHDLTEADFQETFNVGSFASGKETMKLGELLEALKQTYCGPIGAEYMHITSTEEKRWIQQRIESGRATFNSEEKKRFLSELTAAEGLERYLGAKFPGAKRFSLEGGDALIPMLKEMIRHAGNSGTREVVLGMAHRGRLNVLVNVLGKKPQDLFDEFAGKHKEHLGTGDVKYHMGFSSDFQTDGGLVHLALAFNPSHLEIVSPVVIGSVRARLDRLDEPSSNKVLPITIHGDAAVTGQGVVQETLNMSKARGYEVGGTVRIVINNQVGFTTSNPLDARSTPYCTDIGKMVQAPIFHVNADDPEAVAFVTRLALDFRNTFKRDVFIDLVCYRRHGHNEADEPSATQPLMYQKIKKHPTPRKIYADKLEQEKVATLEDATEMVNLYRDALDAGDCVVAEWRPMNMHSFTWSPYLNHEWDEEYPNKVEMKRLQELAKRISTVPEAVEMQSRVAKIYGDRQAMAAGEKLFDWGGAENLAYATLVDEGIPVRLSGEDSGRGTFFHRHAVIHNQSNGSTYTPLQHIHNGQGAFRVWDSVLSEEAVLAFEYGYATAEPRTLTIWEAQFGDFANGAQVVIDQFISSGEQKWGRMCGLVMLLPHGYEGQGPEHSSARLERYLQLCAEQNMQVCVPSTPAQVYHMLRRQALRGMRRPLVVMSPKSLLRHPLAVSSLEELANGTFLPAIGEIDELDPKGVKRVVMCSGKVYYDLLEQRRKNNQHDVAIVRIEQLYPFPHKAMQEVLQQFAHVKDFVWCQEEPLNQGAWYCSQHHFREVIPFGASLRYAGRPASASPAVGYMSVHQKQQQDLVNDALNVE
notes: components expressed separately in E. coli (pCA24N in AG1 for E1o and E2o; E1o purified on Ni-Sepharose) and reassembled at E1o:E2o:E3 mass ratio 1:1:1; with Dihydrolipoyllysine-residue succinyltransferase component of 2-oxoglutarate dehydrogenase complex; Dihydrolipoyl dehydrogenase
B6: OGDHc assembled from E1o, E2o and E3 (CoA site on E2o) (Escherichia coli K-12) (protein)
chain: B1 chain with W375H
notes: as for B1
B7: OGDHc assembled from E1o, E2o and E3 (CoA site on E2o) (Escherichia coli K-12; T324A) (protein)
chain: B1 chain with T323A, W375H
notes: as for B1

Assays:
[1] = molecular target: T1, E1o (with LDo as acyl acceptor) (Escherichia coli, UniProt P0AFG3); test: reductive acylation of LDo, ESI FT-MS; format: biochemical
T1 construct: gene sucA; E1o purified on Ni-Sepharose; acceptor is the separate E2o lipoyl domain (residues 1-105, His6-tagged, lipoylated in vitro); with Dihydrolipoyllysine-residue succinyltransferase component of 2-oxoglutarate dehydrogenase complex

[2] = molecular target: T2, E2o (Escherichia coli, UniProt P0AFG6, H376W); test: intrinsic Trp fluorescence quenching (ex […] nm); format: binding
T2 construct: gene sucB; full-length E2o alone, pCA24N plasmid, expressed in E. coli, PEG precipitation and size exclusion

[3] = molecular target: T3, CDo (E2o catalytic domain) (Escherichia coli, UniProt P0AFG6); test: reverse succinyl transfer to dihydro-LDo, ESI FT-MS; format: biochemical; details: 40 μM dihydro-LDo, 0.10 mM TCEP, 0.15 mM succinyl-CoA, 35 mM NH4HCO3 pH 7.5, 30 °C
T3 construct: gene sucB; separate dihydro-LDo (residues 1-105) as acyl acceptor
T3 sequence (P0AFG6 94-405): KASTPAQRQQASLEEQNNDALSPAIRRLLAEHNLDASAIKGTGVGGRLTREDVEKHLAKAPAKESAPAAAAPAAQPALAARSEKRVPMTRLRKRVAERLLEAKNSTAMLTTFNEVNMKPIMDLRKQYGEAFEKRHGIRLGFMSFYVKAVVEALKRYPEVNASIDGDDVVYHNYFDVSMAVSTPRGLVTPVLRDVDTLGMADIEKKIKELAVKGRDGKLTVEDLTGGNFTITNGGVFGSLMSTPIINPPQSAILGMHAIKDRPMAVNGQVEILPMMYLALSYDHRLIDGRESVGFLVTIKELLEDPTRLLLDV

[4] = substrate: CC(C)(COP(=O)(O)OP(=O)(O)OC[C@H]1O[C@@H](n2cnc3c(N)ncnc32)[C@H](O)[C@@H]1OP(=O)(O)O)[C@@H](O)C(=O)NCCC(=O)NCCS; test: purified protein; format: biochemical, Escherichia coli; details: 2-oxoglutarate, NAD+, ThDP, Mg2+, kcat of overall reaction
[5] = substrate: O=C(O)CCC(=O)C(=O)O; test: purified protein; format: biochemical, Escherichia coli; details: reassembled complex with wild-type E2o; CoA, NAD+, ThDP, Mg2+; kcat of overall reaction
[6] = reassembled complex with wild-type E2o

Molecule	Km ([4]; reassembled complex)	kcat ([4]; reassembled complex)	further results
CC(=O)C(=O)O [pyruvate]			reductive acylation of LDo, ESI FT-MS ([1]; LDo as acyl acceptor, ThDP, Mg2+): could also be used by E1o as substrates for reductive acylation of LDo
CC(C)(COP(=O)(O)OP(=O)(O)OC[C@H]1O[C@@H](n2cnc3c(N)ncnc32)[C@H](O)[C@@H]1OP(=O)(O)O)[C@@H](O)C(=O)NCCC(=O)NCCS [CoA, coenzyme A]			Kd [2]: 61.2 µM
O=C(O)CCCC(=O)C(=O)O [OA, 2-oxoadipate]			reductive acylation of LDo, ESI FT-MS ([1]; 100 μM LDo, 0.1 mM ThDP, 0.5 mM MgCl2, 35 mM NH4HCO3 pH 7.5, 2.5 mM OA): could also be used by E1o as substrates for reductive acylation of LDo
CC(C)(COP(=O)(O)OP(=O)(O)OC[C@H]1O[C@@H](n2cnc3c(N)ncnc32)[C@H](O)[C@@H]1OP(=O)(O)O)[C@@H](O)C(=O)NCCC(=O)NCCSC(=O)CCC(=O)O [succinyl-CoA, succinyl-coenzyme A]			reverse succinyl transfer to dihydro-LDo, ESI FT-MS [3]: rate of succinyl transfer from succinyl‐CoA to the dihydro‐LDo; Kd [2]: 47 µM
B1	13.3 µM	28.8 s⁻¹	
B2	20.6 µM	5.76 s⁻¹	
B3	19.8 µM	27.0 s⁻¹	
B4	21.1 µM	4.6 s⁻¹	
B5			Km [5]: 50 ± 11 µM; kcat [5]: 48.0 s⁻¹; kcat/Km [5]: 1.07e+06 M⁻¹ s⁻¹
B6			Km [4, 6]: 20.4 µM; kcat [4, 6]: 48.0 s⁻¹
B7	23.3 µM	21.7 s⁻¹	
